Results from patent US8629107B2, “Genes and proteins associated with angiogenesis and uses thereof” (National Jewish Health, priority 2005, dated 2014).

Target: T1, Notch1 (Mus musculus, UniProt Q01705)
T1 construct: expressed in transfected cells; host or cells: human kidney 293T cells, transient transfection (LT-1 liposomes)
Assay: Notch1 processing assay in human kidney 293T cells
Assay type: cell-based
Settings: 293T cells co-transfected with Notch1, vs cells solely expressing Notch1; anti-Myc immunoblot
Experimental: To monitor the effects of MAGP-2 on the processing and S3 cleavage of Notch1, human kidney 293T cells were transiently transfected in 6-well plates with LT-1 liposomes containing 0.5 μg/well of Notch1 (pCS2+mN1FL6MT), 0.5 μg/well Jagged-1 (pCS2+Jag1-6MT), or 1.5 μg/well of MAGP-2 (pcDNA3.1-MAGP-2/Myc-His) in all combinations. Forty-eight h post-transfection, the cells were washed with ice-cold PBS, lysed immediately in Buffer H/1% Triton X-100 [500 μl/well; (Schiemann et al, 2002)], and incubated on ice for 30 min. Afterward, insoluble material was removed by microcentrifugation and 100 μl of the resulting clarified extract was fractionated through 6% SDS-PAGE gels. The fractionated proteins were transferred electrophoretically to nitrocellulose and probed with anti-Myc 9E10 monoclonal antibodies (Covance, Princeton, N.J.) to visual Notch1 cleavage species.
Activation of Notch1 signaling involves three proteolytic processing events, termed S1, S2, and S3, that produce three distinct Notch1 fragments, termed TMIC, NEXT, and NICD, respectively (Mumm et al, 2000). […] The inventors tested this possibility by transiently transfecting human 293T cells with cDNAs encoding Myc-tagged versions of Notch1, Jagged-1, and MAGP-2 in all combinations, and subsequently monitored changes in NICD production and accumulation by immunoblot analyses using anti-Myc monoclonal antibodies. […]

T1 sequence (Q01705 19-2531): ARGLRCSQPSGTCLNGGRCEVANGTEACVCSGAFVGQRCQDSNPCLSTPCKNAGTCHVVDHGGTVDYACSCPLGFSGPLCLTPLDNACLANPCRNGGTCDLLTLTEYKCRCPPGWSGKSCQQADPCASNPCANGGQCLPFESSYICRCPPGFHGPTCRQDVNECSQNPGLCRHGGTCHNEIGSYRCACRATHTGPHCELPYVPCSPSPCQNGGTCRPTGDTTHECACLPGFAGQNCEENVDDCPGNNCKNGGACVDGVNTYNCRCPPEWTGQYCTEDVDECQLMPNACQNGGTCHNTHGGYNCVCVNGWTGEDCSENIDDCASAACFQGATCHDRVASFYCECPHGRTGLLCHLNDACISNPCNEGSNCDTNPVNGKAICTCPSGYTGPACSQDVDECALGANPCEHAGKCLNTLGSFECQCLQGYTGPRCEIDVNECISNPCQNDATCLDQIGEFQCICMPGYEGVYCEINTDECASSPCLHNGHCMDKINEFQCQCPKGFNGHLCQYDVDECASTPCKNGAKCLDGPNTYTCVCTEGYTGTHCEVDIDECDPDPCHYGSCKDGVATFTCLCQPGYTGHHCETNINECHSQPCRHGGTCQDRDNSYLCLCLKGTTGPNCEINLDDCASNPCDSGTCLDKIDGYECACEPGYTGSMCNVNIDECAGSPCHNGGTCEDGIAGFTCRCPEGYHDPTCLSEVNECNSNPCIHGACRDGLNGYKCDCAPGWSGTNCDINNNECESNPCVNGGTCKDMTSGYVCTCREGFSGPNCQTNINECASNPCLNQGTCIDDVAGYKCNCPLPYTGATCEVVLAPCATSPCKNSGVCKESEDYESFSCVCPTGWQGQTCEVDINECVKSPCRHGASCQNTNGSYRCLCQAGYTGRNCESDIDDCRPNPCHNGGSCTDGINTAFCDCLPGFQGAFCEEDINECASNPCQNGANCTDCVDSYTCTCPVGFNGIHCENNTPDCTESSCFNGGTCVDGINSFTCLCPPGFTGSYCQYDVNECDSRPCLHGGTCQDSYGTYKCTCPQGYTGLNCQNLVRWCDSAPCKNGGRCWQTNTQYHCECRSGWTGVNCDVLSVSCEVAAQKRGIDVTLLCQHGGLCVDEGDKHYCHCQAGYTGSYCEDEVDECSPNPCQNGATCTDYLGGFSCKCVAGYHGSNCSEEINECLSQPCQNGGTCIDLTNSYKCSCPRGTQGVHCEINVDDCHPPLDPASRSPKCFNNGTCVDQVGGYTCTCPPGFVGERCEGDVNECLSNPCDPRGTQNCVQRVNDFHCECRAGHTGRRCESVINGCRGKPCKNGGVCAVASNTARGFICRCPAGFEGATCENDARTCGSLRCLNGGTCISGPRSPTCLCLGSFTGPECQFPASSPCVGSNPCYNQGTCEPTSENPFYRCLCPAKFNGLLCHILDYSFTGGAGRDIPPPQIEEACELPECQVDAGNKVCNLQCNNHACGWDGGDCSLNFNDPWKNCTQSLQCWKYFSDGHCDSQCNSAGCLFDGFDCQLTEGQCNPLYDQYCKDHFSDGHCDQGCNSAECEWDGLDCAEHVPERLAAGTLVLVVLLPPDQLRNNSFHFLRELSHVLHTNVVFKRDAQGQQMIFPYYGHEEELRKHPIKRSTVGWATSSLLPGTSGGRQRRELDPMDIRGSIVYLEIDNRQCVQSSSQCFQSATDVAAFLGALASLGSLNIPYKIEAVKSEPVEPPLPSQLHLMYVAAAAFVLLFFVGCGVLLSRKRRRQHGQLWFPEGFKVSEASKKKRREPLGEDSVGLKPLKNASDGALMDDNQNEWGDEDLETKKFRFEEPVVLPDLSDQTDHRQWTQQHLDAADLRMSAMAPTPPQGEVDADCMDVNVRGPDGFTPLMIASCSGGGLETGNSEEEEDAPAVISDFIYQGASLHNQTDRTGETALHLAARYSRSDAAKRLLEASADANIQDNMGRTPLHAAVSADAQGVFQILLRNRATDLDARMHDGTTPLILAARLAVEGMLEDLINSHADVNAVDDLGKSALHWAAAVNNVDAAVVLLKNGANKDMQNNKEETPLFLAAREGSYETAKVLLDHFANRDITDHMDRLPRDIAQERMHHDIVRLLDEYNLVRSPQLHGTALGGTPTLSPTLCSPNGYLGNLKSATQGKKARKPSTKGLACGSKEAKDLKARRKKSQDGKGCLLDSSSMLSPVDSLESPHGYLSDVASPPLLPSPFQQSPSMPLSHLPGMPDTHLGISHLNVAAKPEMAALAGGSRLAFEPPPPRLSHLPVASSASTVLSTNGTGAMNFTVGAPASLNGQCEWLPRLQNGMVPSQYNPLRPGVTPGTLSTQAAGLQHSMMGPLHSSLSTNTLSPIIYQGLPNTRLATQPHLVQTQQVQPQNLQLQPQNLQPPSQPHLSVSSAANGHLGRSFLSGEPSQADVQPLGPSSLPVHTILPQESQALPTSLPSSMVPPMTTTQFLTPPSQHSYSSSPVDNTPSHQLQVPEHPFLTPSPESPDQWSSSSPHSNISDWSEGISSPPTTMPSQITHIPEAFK

B1: Jagged-1: Notch1 ligand; Myc-tagged murine Jagged-1 cDNA transiently transfected (protein)
chain: QFELEILSMQNVNGELQNGNCCGGVRNPGDRKCTRDECDTYFKVCLKEYQSRVTAGGPCSFGSGSTPVIGGNTFNLKASRGNDRNRIVLPFSFAWPRSYTLLVEAWDSSNDTIQPDSIIEKASHSGMINPSRQWQTLKQNTGIAHFEYQIRVTCDDHYYGFGCNKFCRPRDDFFGHYACDQNGNKTCMEGWMGPDCNKAICRQGCSPKHGSCKLPGDCRCQYGWQGLYCDKCIPHPGCVHGTCNEPWQCLCETNWGGQLCDKDLNYCGTHQPCLNRGTCSNTGPDKYQCSCPEGYSGPNCEIAEHACLSDPCHNRGSCKETSSGFECECSPGWTGPTCSTNIDDCSPNNCSHGGTCQDLVNGFKCVCPPQWTGKTCQLDANECEAKPCVNARSCKNLIASYYCDCLPGWMGQNCDININDCLGQCQNDASCRDLVNGYRCICPPGYAGDHCERDIDECASNPCLNGGHCQNEINRFQCLCPTGFSGNLCQLDIDYCEPNPCQNGAQCYNRASDYFCKCPEDYEGKNCSHLKDHCRTTTCEVIDSCTVAMASNDTPEGVRYISSNVCGPHGKCKSQSGGKFTCDCNKGFTGTYCHENINDCESNPCKNGGTCIDGVNSYKCICSDGWEGAHCENNINDCSQNPCHYGGTCRDLVNDFYCDCKNGWKGKTCHSRDSQCDEATCNNGGTCYDEVDTFKCMCPGGWEGTTCNIARNSSCLPNPCHNGGTCVVNGDSFTCVCKEGWEGPICTQNTNDCSPHPCYNSGTCVDGDNWYRCECAPGFAGPDCRININECQSSPCAFGATCVDEINGYQCICPPGHSGAKCHEVSGRSCITMGRVILDGAKWDDDCNTCQCLNGRVACSKVWCGPRPCRLHKSHNECPSGQSCIPVLDDQCFVRPCTGVGECRSSSLQPVKTKCTSDSYYQDNCANITFTFNKEMMSPGLTTEHICSELRNLNILKNVSAEYSIYIACEPSLSANNEIHVAISAEDIRDDGNPVKEITDKIIDLVSKRDGNSSLIAAVAEVRVQRRPLKNRTDFLVPLLSSVLTVAWVCCLVTAFYWCVRKRRKPSSHTHSAPEDNTTNNVREQLNQIKNPIEKHGANTVPIKDYENKNSKMSKIRTHNSEVEEDDMDKHQQKVRFAKQPVYTLVDREEKAPSGTPTKHPNWTNKQDNRDLESAQSLNRMEYIV
modifications: left off: small tags and cut ends
notes: Notch1 ligand; Myc-tagged murine Jagged-1 cDNA transiently transfected
Question: For B1, which “Notch1 processing and production of NICD” value is on record?
Answer: significantly enhanced
